Laboratory results: US6084068
Like-named read-outs stand apart in the source and are kept apart here.

Assays:
RNA Polymerase II (rat) [1] = target: RNA Polymerase II (rat)
RNA Polymerase II (rat) [2] = target: RNA Polymerase II (rat); remark: listed apart in the source

| Substance | runoff transcription from the AdML promoter by RNA Polymerase II (RNA Polymerase II (rat) [1]) | runoff transcription from the AdML promoter by RNA Polymerase II (RNA Polymerase II (rat) [2]) |
| --- | --- | --- |
| Elongin A deletion mutant 1-680 | 50% |  |
| Elongin A deletion mutant 1-730 |  | > 50% |
